Values of other authors, collected in PMC3221918.

Molecular target: IL-15RαSu soluble ECD (Homo sapiens) (UniProt Q13261)
Chain of UniProt Q13261 (Q13261 31-95): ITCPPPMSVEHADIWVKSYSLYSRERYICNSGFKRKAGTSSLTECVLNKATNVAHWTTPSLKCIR

In the case of IL-15 (from UniProt P40933), the Kd is given as 0.1 nM.
